Laboratory results taken from US20050058747.

How the values were obtained:
[1] = molecular target: T1, soybean Kunitz trypsin inhibitor (UniProt P01070)
T1 sequence: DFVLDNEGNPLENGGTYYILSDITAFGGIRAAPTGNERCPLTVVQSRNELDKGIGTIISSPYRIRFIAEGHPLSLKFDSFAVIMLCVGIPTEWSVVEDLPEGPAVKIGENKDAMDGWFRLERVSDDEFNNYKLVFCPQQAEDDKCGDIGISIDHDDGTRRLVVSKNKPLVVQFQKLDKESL

[2] = molecular target: T2, soybean Bowman-Birk inhibitor (UniProt P01055)
T2 sequence: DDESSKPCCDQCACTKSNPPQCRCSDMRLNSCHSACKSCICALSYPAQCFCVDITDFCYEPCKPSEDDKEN

Soybean agglutinin (SBA) = Soybean agglutinin (SBA) (UniProt P05046)
Sequence of Soybean agglutinin (SBA) (P05046 33-285): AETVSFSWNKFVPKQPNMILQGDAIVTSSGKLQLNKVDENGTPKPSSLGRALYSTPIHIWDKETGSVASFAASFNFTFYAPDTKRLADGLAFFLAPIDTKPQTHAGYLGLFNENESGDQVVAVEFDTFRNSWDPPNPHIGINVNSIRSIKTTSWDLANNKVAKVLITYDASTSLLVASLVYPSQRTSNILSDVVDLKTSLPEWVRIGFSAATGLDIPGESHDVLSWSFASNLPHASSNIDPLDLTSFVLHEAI

protease from Nocardiopsis sp. NRRL 18262
Percentage degradation of isolated soy proteins [1]: 94% | Percentage degradation of isolated soy proteins [2]: 35% | Percentage degradation of isolated soy proteins (Soybean glycinin): 98% | Percentage degradation of isolated soy proteins (Soybean beta-conglycinin): 95% | Percentage degradation of isolated soy proteins (Soybean agglutinin (SBA)): 100%
